Test results as given in patent publication US20240090511A1.

Target: N. viridula BBMV proteins
Test: competition pull-down: biotinylated peptide against ABP5-(AP)5-mCherry on BBMV

- competitor peptide concentration at which binding was outcompeted: > 10 µM
Binder: MDWPRRN (biotinylated (position not given)) [biotinylated synthetic peptide (ABP5)]
